Data on six molecules can be found in US20250041435A1 (AstraZeneca / MedImmune, published 2025).

Assay [1] has as its target T1, human STEAP2 (six-transmembrane epithelial antigen of prostate 2) (human, UniProt Q8NFT2 1-490).
T1 sequence: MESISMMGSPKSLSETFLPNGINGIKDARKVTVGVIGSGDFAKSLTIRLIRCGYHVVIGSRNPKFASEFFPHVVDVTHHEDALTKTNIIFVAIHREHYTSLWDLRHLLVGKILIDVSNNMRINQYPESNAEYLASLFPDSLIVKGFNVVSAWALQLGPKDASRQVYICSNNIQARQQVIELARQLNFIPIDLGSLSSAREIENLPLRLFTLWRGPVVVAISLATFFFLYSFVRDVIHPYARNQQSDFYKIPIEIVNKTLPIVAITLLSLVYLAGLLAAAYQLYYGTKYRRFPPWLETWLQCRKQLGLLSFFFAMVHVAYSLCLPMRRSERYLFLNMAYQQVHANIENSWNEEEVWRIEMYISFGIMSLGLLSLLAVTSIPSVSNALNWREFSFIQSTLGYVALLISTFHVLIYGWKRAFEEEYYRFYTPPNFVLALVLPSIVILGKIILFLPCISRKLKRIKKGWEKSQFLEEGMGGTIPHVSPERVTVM
Nature of the assay: cell-based or functional assay.

Assay [2] deals with T1, human STEAP2 (six-transmembrane …). Nature of the assay: cell-based or functional assay. The source holds these as a separate data set.
Assay [3] has the same target. Nature of the assay: flow cytometry on LNCaP cells (endogenous human STEAP2), anti-human AF647 secondary. As for the experimental part: (§1) The cell-binding assays were designed to assess the binding affinities for parental 40A3-LO7 and its affinity matured derivatives to both human and murine STEAP2. The binding of the anti-STEAP2 antibodies were detected using a fluorescently labelled anti-human secondary antibody and standard methods of flow cytometry.
(§2) Briefly, a seven point 3-fold serial dilutions of 5× antibodies (mAbs) was prepared in sterile filtered FACS Buffer (5% Heat Inactivated Fetal Bovine Serum in PBS pH 7.4). Ten microliters of the antibody dilutions were added into designated wells in a 96-well U-bottom clear plate. The evaluated cells lines were harvested using cold 0.25% Trypsin-EDTA, resuspended in maintenance media, pelleted, and counted. Cell density was adjusted to 2×10⁶ cells/ml and forty microliters of cells were seeded on top of the antibody dilutions and incubated for 30 minutes. Cells were washed and a solution containing a 1:400 dilution of anti-human secondary antibody and a 1:1000 dilution of DAPI. After another 30 minute incubation, cells were washed, and then transferred to the FACS instrument for analysis.
A general note: Flow cytometry measures light scatter and fluorescence of single cells or particles in a stream.

Assay [4] deals with T2, murine chimeric STEAP3-2 protein on AD293 cells (murine).
T2 construct: Used to test cross-reactivity to mouse STEAP2; also called AD293 muSTEAP3-2; AD293 STEAP3-2
The assay can be described thus: flow cytometry on AD293 muSTEAP3-2 cells, anti-human secondary. The procedure:
as §1, §2

For assay [5], the target named is T1, human STEAP2 (six-transmembrane …). The assay can be described thus: cell-based binding (flow cytometry).
Assay [6] has the same target. Nature of the assay: flow cytometry on LNCaP cells (endogenous human STEAP2).
The target of assay [7] is T2, murine chimeric STEAP3-2 protein on …. Nature of the assay: flow cytometry on AD293 muSTEAP3-2 cells, fluorescent anti-human secondary antibody. As for the experimental part:
as §1, §2

B1: LO14 SG3932 DAR8 ADC (antibody, human IgG1, kappa, V domains shown)
VH: QVQLQQSGPGLVKPSQTLSLTCAISGDSVSRNSAVWNWIRQSPSRGLEWLGRTYYRSKWYNDYAPSVKSRITINPDTSKNQFSLQLNSVTPEDTAVYYCARGLRQNQFYYYMDVWGKGTTVTVSS
VL: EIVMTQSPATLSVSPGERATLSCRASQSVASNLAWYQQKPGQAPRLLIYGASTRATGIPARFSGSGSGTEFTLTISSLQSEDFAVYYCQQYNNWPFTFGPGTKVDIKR
modifications: SG3932 on native cysteines (DAR 8 per antibody); SG3932 (TOP1i, cleavable mal-PEG8-val-ala linker) on native cysteines through a thiosuccinimide linkage; DAR 8 per antibody
Turning to B1, in assay [1], the “In Vitro Potency (22Rv1), IC50 of cell viability (CellTiter-Glo)” value turned out to be 4.53 nM; the “In Vitro Potency (C4-2), IC50 of cell viability (CellTiter-Glo)” value is 2.23 nM; the “In Vitro Potency (LNCaP), IC50 of cell viability (CellTiter-Glo)” value was determined as 0.22 nM. Further, the “IC50 of cell viability, LNCaP cells (CellTiter-Glo)” value in assay [2] amounted to 0.3 nM.

B2: LO11 SG3932 DAR8 ADC (antibody, human IgG1, kappa, V domains shown)
VH: QVQLQQSGPGLVKPSQTLSLTCAISGDSVSRNSAVWNWIRQSPSRGLEWLGRTYYRSKWYNDYAPSVKSRITINPDTSKNQFSLQLNSVTPEDTAVYYCARGLLQNQFYYYMDVWGKGTTVTVSS
VL: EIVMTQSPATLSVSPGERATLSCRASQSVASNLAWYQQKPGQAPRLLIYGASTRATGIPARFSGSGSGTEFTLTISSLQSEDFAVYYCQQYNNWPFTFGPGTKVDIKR
modifications: SG3932 on native cysteines (DAR 8 per antibody); SG3932 (TOP1i, cleavable mal-PEG8-val-ala linker) on native cysteines through a thiosuccinimide linkage; DAR 8 per antibody
Take B2: in assay [1], the “In Vitro Potency (22Rv1), IC50 of cell viability (CellTiter-Glo)” value was 32.1 nM; the “In Vitro Potency (C4-2), IC50 of cell viability (CellTiter-Glo)” value is 16.5 nM; the “In Vitro Potency (LNCaP), IC50 of cell viability (CellTiter-Glo)” value came out at 1.7 nM. Also, the “IC50 of cell viability, LNCaP cells (CellTiter-Glo)” value in assay [2] is 2.78 nM.

B3: 40A3-LO14 (antibody, human IgG1, kappa, V domains shown)
VH: QVQLQQSGPGLVKPSQTLSLTCAISGDSVSRNSAVWNWIRQSPSRGLEWLGRTYYRSKWYNDYAPSVKSRITINPDTSKNQFSLQLNSVTPEDTAVYYCARGLRQNQFYYYMDVWGKGTTVTVSS
VL: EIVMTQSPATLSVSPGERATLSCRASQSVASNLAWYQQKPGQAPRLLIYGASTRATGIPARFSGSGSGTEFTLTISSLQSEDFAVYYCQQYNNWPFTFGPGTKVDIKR
notes: also called 40A3GL-LO14; LO14 mAb
For orientation: EC50 means the concentration at which the effect is half-maximal. Read a low EC50 as an effect from little substance. As to B3, the EC50 in assay [3] came out at 1.67 nM; in assay [4] it was 0.97 nM. Moreover, the “fold improvement in binding relative to 40A3-LO7” value in assay [5] stood at 26 fold.

B4: 40A3-LO12 (antibody, V domains shown)
VH: QVQLQQSGPGLVKPSQTLSLTCAISGDSVSRNSAVWNWIRQSPSRGLEWLGRTYYRSKWYNDYAVSVKSRITINPDTSKNQFSLQLNSVTPEDTAVYYCARGLRQNQFYYYMDVWGKGTTVTVSS
VL: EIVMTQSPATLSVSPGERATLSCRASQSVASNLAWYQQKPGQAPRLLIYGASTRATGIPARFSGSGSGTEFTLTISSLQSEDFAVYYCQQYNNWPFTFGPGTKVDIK
notes: Human IgG1 kappa
B4 had an EC50 in assay [6] of 1.72 nM.

B5: 40A3-LO7 (antibody, V domains shown)
VH: QVQLQQSGPGLVKPSQTLSLTCAISGDSVSRNSAVWNWIRQSPSRGLEWLGRTYYRSKWYNDYAVSVKSRITINPDTSKNQFSLQLNSVTPEDTAVYYCARGLLQNQFYYYMDVWGKGTTVTVSS
VL: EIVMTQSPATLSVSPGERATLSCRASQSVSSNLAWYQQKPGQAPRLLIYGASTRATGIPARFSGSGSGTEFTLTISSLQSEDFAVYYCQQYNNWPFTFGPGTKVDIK
notes: Germlined, de-risked 40A3; Human IgG1 kappa; also called 40A3GL-LO7; STEAP2-3 VH / STEAP2-3 VL
A word on the EC50 (read off the curve): it is the concentration giving half of the maximal effect. Read a low EC50 (read off the curve) as higher potency in that assay. In turn, B5 gave an EC50 in assay [6] of 43.3 nM. Moreover, the “EC50 (read off the curve)” value in assay [7] is about 5 µg/mL.

B6: 40A3-LO11 (antibody, human IgG1, kappa, V domains shown)
VH: QVQLQQSGPGLVKPSQTLSLTCAISGDSVSRNSAVWNWIRQSPSRGLEWLGRTYYRSKWYNDYAPSVKSRITINPDTSKNQFSLQLNSVTPEDTAVYYCARGLLQNQFYYYMDVWGKGTTVTVSS
VL: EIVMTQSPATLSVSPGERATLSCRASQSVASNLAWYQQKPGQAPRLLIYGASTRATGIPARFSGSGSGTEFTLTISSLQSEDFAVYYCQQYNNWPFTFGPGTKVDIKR
notes: also called 40A3GL-LO11; LO11 mAb
On to B6, for which the EC50 turned out to be 2.38 nM in assay [3] and 5.78 nM in assay [4].
